The experiment deals with Biotin-labeled fluorescent peptide …(S*)PDK-(5-FAM). The experiment can be described thus: cell-based or functional assay.

Turning to “GSK3α, rHuman (from UniProt P49840 1-483) (enzyme)”, the EC50 of enzyme titration (TR-FRET ratio, 400 nM substrate, 200 µM ATP) was found to be 0.025 µg/mL.
The figure for “GSK3β, rHuman (from UniProt P49841 1-420) (enzyme)” is 0.245 µg/mL.

Source of the values: patent US20050170442A1.
